What all share (test): library pulldown, LC-MS of supernatant; ratio vs GFP-Nb control (0=captured, 1=not captured)
Assay [1] addresses T1, BC2T A5R (human).
T1 construct: position 5 library, row R
T1 peptide: Ac-PDRKRAVSHWQQ-NH2
The procedure, abridged: (§1)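 Unbound peptide left in supernatant after 1 h pulldown in PBS/0.01% CHAPS measured by reversed-phase LC-MS (8–30% eluent B gradient, 20 min).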

For assay [2], the target named is T2, BC2T A6N (human).
T2 construct: position 6 library (BC2TA6X), row N
T2 peptide: Ac-PDRKANVSHWQQ-NH2
The method, boiled down:
as §1

Assay [3] addresses T3, BC2T P1F (human).
T3 construct: position 1 library, row F
T3 peptide: Ac-FDRKAAVSHWQQ-NH2
The procedure, abridged: as §1

Assay [4] deals with T4, BC2T P1Y (human).
T4 construct: position 1 library, row Y
T4 peptide: Ac-YDRKAAVSHWQQ-NH2
The method, boiled down:
as §1

For assay [5], the target named is T5, BC2T K4Q (human).
T5 construct: position 4 library, row Q
T5 peptide: Ac-PDRQAAVSHWQQ-NH2
The method, boiled down:
as §1

The target in assay [6] is T6, BC2T K4Y (human).
T6 construct: position 4 library, row Y
T6 peptide: Ac-PDRYAAVSHWQQ-NH2
The procedure, abridged: as §1

Assay [7] addresses T7, BC2T D2K (human).
T7 construct: position 2 library, row K
T7 peptide: Ac-PKRKAAVSHWQQ-NH2
The method, boiled down: as §1

Assay [8] has as its target T8, BC2T V7E (human).
T8 construct: position 7 library, row E
T8 peptide: Ac-PDRKAAESHWQQ-NH2
The procedure, abridged: as §1

For assay [9], the target named is T9, BC2T K4H (human).
T9 construct: position 4 library, row H
T9 peptide: Ac-PDRHAAVSHWQQ-NH2
The procedure, abridged:
as §1

Assay [10] deals with T10, BC2T D2R (human).
T10 construct: position 2 library, row R
T10 peptide: Ac-PRRKAAVSHWQQ-NH2
The procedure, abridged: as §1

The target of assay [11] is T11, BC2T K4C(Abu) (human, not fully specified (residue 4)).
T11 construct: position 4 library, row C(Abu) / C*
T11 peptide: Ac-PDRCAAVSHWQQ-NH2
The method, boiled down: as §1

Assay [12] deals with T12, BC2T V7N (human).
T12 construct: position 7 library, row N
T12 peptide: Ac-PDRKAANSHWQQ-NH2
The procedure, abridged: as §1

Assay [13] concerns the target T13, BC2T A5N (human).
T13 construct: position 5 library, row N
T13 peptide: Ac-PDRKNAVSHWQQ-NH2
The method, boiled down: as §1

In assay [14] the target is T14, BC2T R3Q (human).
T14 construct: position 3 library (BC2TR3X), row Q
T14 peptide: Ac-PDQKAAVSHWQQ-NH2
The method, boiled down: as §1

The target of assay [15] is T15, BC2T V7Y (human).
T15 construct: position 7 library, row Y
T15 peptide: Ac-PDRKAAYSHWQQ-NH2
The procedure, abridged:
as §1

For assay [16], the target named is T16, BC2T P1H (human).
T16 construct: position 1 library, row H
T16 peptide: Ac-HDRKAAVSHWQQ-NH2
The procedure, abridged:
as §1

Assay [17] concerns the target T17, BC2T V7P (human).
T17 construct: position 7 library, row P
T17 peptide: Ac-PDRKAAPSHWQQ-NH2
The method, boiled down: as §1

Assay [18] addresses T18, BC2T V7W (human).
T18 construct: position 7 library, row W
T18 peptide: Ac-PDRKAAWSHWQQ-NH2
The method, boiled down: as §1

For assay [19], the target named is T19, BC2T R3H (human).
T19 construct: position 3 library (BC2TR3X), row H
T19 peptide: Ac-PDHKAAVSHWQQ-NH2
The procedure, abridged:
as §1

The target of assay [20] is T20, BC2T R3F (human).
T20 construct: position 3 library (BC2TR3X), row F
T20 peptide: Ac-PDFKAAVSHWQQ-NH2
The method, boiled down:
as §1

Assay [21] deals with T21, BC2T A6D (human).
T21 construct: position 6 library (BC2TA6X), row D
T21 peptide: Ac-PDRKADVSHWQQ-NH2
The procedure, abridged: as §1

Assay [22] addresses T22, BC2T A5S (human).
T22 construct: position 5 library, row S
T22 peptide: Ac-PDRKSAVSHWQQ-NH2
The procedure, abridged:
as §1

Consider 2 molecules from patent US20170137467A1 (CHROMOTEK, published 2017).

Where a chain is given by its changes, count along the chain named.

B1: BC2 nanobody (BC2-Nb) (VHH)
VHH: QVQLVESGGGLVQPGGSLTLSCTASGFTLDHYDIGWFRQAPGKEREGVSCINNSDDDTYYADSVKGRFTIFMDNAKDTVYLQMNSLKPEDTAIYYCAEARGCKRGRYEYDFWGQGTQVTVSS
notes: immobilised on agarose/sepharose beads in this assay; also called BC2 nanotrap (immobilised form); not shown: C-terminal 6xHis-tag added by pHEN6 vector
Consider B1, for which the ratio was found to be 0.2 in [1]; 1 in [2]; 0.2 in [3]; 0.1 in [4]; 0.1 in [5]; 0.2 in assay [6]. For the same molecule, the ratio amounted to 0.2 in assay [7]; 0.4 in [8]; 0.1 in assay [9]; 0.1 in assay [10]; 0.1 in assay [11]; 0.2 in assay [12]. The ratio came out at 0.3 in [13]; 0.5 in assay [14]; 0.1 in assay [15]; 0.3 in [16]; 1 in [17]; 0.1 in assay [18]. For the same molecule, the ratio was found to be 0.3 in [19], 0.8 in assay [20], 1 in [21] and 0.1 in assay [22].

B2: BC2-NbR106S (VHH)
VHH: B1 VHH with R106S
notes: immobilised on beads in this assay; not shown: C-terminal 6xHis-tag added by pHEN6 vector
As to B2, the ratio in assay [1] is 0.1; in assay [2], 1; in [3], 0.3; in assay [4] it was 0.3; in assay [5] it was 0.4; in assay [6], 0.5. For the same molecule, the ratio in [7] was 0.2; in assay [8], 0.8; in [9], 0.3; in [10] it was 0.2; in [11], 0.3; in assay [12], 0.4. The ratio in assay [13] was 0.5; in assay [14], 0.9; in assay [15], 0.3; in assay [16], 0.6; in assay [17], 1; in assay [18], 0.3. The ratio came out at 0.7 in [19], 1 in assay [20], 1 in [21] and 0.4 in assay [22].
